How the values were obtained:
[1] = biological target: Human PSMA on prostate cancer cell lines (C4-2B, 22RV1) (human, UniProt Q04609 1-750); experiment: cell-based or functional assay
[2] = biological target: Human CD3 on T cells / Jurkat cells (human, UniProt P07766 23-207); experiment: cell-based or functional assay
Sequence of Human CD3 on T cells / Jurkat cells (P07766 23-207 limits assumed): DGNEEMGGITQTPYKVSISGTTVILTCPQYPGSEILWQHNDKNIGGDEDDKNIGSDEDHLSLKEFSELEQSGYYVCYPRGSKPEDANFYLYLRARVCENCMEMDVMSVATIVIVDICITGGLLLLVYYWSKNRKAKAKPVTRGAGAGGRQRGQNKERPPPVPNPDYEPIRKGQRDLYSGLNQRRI

Sequence of Human PSMA on prostate cancer cell lines (C4-2B, 22RV1) (Q04609 whole entry): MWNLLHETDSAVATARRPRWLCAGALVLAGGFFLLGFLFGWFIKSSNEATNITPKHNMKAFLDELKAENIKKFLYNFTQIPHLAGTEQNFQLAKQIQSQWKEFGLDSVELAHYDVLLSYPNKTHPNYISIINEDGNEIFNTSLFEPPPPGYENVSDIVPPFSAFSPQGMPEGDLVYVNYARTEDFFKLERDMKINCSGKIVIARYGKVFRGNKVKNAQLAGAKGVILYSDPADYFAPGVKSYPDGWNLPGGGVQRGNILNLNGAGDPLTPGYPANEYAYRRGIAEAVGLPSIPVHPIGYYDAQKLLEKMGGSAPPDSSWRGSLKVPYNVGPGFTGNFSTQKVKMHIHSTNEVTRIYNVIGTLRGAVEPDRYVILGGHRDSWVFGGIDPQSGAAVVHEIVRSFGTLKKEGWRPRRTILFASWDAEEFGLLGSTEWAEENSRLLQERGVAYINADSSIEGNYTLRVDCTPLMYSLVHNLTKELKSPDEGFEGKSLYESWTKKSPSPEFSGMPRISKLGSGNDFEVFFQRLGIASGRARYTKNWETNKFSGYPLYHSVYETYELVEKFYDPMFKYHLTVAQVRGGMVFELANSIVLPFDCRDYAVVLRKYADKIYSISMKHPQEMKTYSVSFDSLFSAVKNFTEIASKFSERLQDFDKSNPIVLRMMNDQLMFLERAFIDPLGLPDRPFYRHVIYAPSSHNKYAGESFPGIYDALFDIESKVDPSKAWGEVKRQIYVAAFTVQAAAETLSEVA

T cell activation EC50 [M] (CD25+ T cells, C4-2B co-culture, 72 h) [2]	Binder	Tumor killing EC50 [M] (C4-2B + PAN-T cells, 72 h, flow cytometry) [1]
6.01e-11	PS3B933 (bispecific antibody, human IgG1, kappa, lambda, L234A L235A) heavy 1: EVQLVESGGGLVKPGGSLRLSCAASGFTFSRYNMNWVRQAPGKGLEWVSSISTSSNYIYYADSVKGRFTFSRDNAKNSLDLQMSGLRAEDTAIYYCTRGWGPFDYWGQGTLVTVSSASTKGPSVFPLAPSSKSTSGGTAALGCLVKDYFPEPVTVSWNSGALTSGVHTFPAVLQSSGLYSLSSVVTVPSSSLGTQTYICNVNHKPSNTKVDKKVEPKSCDKTHTCPPCPAPEAAGGPSVFLFPPKPKDTLMISRTPEVTCVVVSVSHEDPEVKFNWYVDGVEVHNAKTKPREEQYNSTYRVVSVLTVLHQDWLNGKEYKCKVSNKALPAPIEKTISKAKGQPREPQVYTLPPSREEMTKNQVSLTCLVKGFYPSDIAVEWESNGQPENNYKTTPPVLDSDGSFLLYSKLTVDKSRWQQGNVFSCSVMHEALHNHYTQKSLSLSP light 1: DIQMTQSPSSLSASVGDRVTITCRARQSIGTAIHWYQQKPGKAPKLLIKYASESISGVPSRFSGSGSGTDFTLTISSLQPEDFATYYCQQSGSWPYTFGQGTKLEIKRTVAAPSVFIFPPSDEQLKSGTASVVCLLNNFYPREAKVQWKVDNALQSGNSQESVTEQDSKDSTYSLSSTLTLSKADYEKHKVYACEVTHQGLSSPVTKSFNRGEC heavy 2: EVQLVESGGGLVQPGGSLRLSCAASGFTFSSYAMSWVRQAPGKGLEWVSAISGGSGSTYYADSVKGRFTISRDNSKNTLYLQMNSLRAEDSAVYYCAKDGVGATPYYFDYWGQGTLVTVSSASTKGPSVFPLAPSSKSTSGGTAALGCLVKDYFPEPVTVSWNSGALTSGVHTFPAVLQSSGLYSLSSVVTVPSSSLGTQTYICNVNHKPSNTKVDKKVEPKSCDKTHTCPPCPAPEAAGGPSVFLFPPKPKDTLMISRTPEVTCVVVSVSHEDPEVKFNWYVDGVEVHNAKTKPREEQYNSTYRVVSVLTVLHQDWLNGKEYKCKVSNKALPAPIEKTISKAKGQPREPQVYTLPPSREEMTKNQVSLTCLVKGFYPSDIAVEWESNGQPENNYKTTPPVLDSDGSFFLYSRLTVDKSRWQQGNVFSCSVMHEALHNHYTQKSLSLSPG light 2: QSVLTQPPSVSAAPGQKVTISCSGSSSNIGNNYVSWYQQLPGTAPKLLIYDNNKRPSGIPDRFSGSKSGTSATLGITGLQTGDEADYYCGTWDSSLSAYVFGTGTKVTVLGQPKAAPSVTLFPPSSEELQANKATLVCLISDFYPGAVTVAWKADSSPVKAGVETTTPSKQSNNKYAASSYLSLTPEQWKSHRSYSCQVTHEGSTVEKTVAPTECS	4.76e-11
6.72e-12	PS3B935 (bispecific antibody, human IgG1, kappa, lambda, L234A L235A) heavy 1: EVQLVESGGGLVKPGGSLRLSCAASGFTFSRYNMNWVRQAPGKGLEWVSSISTSSNYIYYADSVKGRFTFSRDNAKNSLDLQMSGLRAEDTAIYYCTRGWGPFDYWGQGTLVTVSSASTKGPSVFPLAPSSKSTSGGTAALGCLVKDYFPEPVTVSWNSGALTSGVHTFPAVLQSSGLYSLSSVVTVPSSSLGTQTYICNVNHKPSNTKVDKKVEPKSCDKTHTCPPCPAPEAAGGPSVFLFPPKPKDTLMISRTPEVTCVVVSVSHEDPEVKFNWYVDGVEVHNAKTKPREEQYNSTYRVVSVLTVLHQDWLNGKEYKCKVSNKALPAPIEKTISKAKGQPREPQVYTLPPSREEMTKNQVSLTCLVKGFYPSDIAVEWESNGQPENNYKTTPPVLDSDGSFLLYSKLTVDKSRWQQGNVFSCSVMHEALHNHYTQKSLSLSP light 1: DIQMTQSPSSLSASVGDRVTITCRARQSIGTAIHWYQQKPGKAPKLLIKYASESISGVPSRFSGSGSGTDFTLTISSLQPEDFATYYCQQSGSWPYTFGQGTKLEIKRTVAAPSVFIFPPSDEQLKSGTASVVCLLNNFYPREAKVQWKVDNALQSGNSQESVTEQDSKDSTYSLSSTLTLSKADYEKHKVYACEVTHQGLSSPVTKSFNRGEC heavy 2: EVQLVESGGGLVQPGGSLRLSCAASGFTFSSYAMSWVRQAPGKGLEWVSAISGGSGSTYYADSVKGRFTISRDNSKNTLYLQMNSLRAEDSAVYYCAKDGVGATPYYFDYWGQGTLVTVSSASTKGPSVFPLAPSSKSTSGGTAALGCLVKDYFPEPVTVSWNSGALTSGVHTFPAVLQSSGLYSLSSVVTVPSSSLGTQTYICNVNHKPSNTKVDKKVEPKSCDKTHTCPPCPAPEAAGGPSVFLFPPKPKDTLMISRTPEVTCVVVSVSHEDPEVKFNWYVDGVEVHNAKTKPREEQYNSTYRVVSVLTVLHQDWLNGKEYKCKVSNKALPAPIEKTISKAKGQPREPQVYTLPPSREEMTKNQVSLTCLVKGFYPSDIAVEWESNGQPENNYKTTPPVLDSDGSFFLYSRLTVDKSRWQQGNVFSCSVMHEALHNHYTQKSLSLSPG light 2: QSVLTQPPSVSAAPGQKVTISCSGSSSNIGINYVSWYQQLPGTAPKLLIYDNNKRPSGIPDRFSGSKSGTSATLGITGLQTGDEADYYCGTWDSSLSAVVFGGGTKLTVLGQPKAAPSVTLFPPSSEELQANKATLVCLISDFYPGAVTVAWKADSSPVKAGVETTTPSKQSNNKYAASSYLSLTPEQWKSHRSYSCQVTHEGSTVEKTVAPTECS	7.16e-12
4.81e-12	PS3B934 (bispecific antibody, human IgG1, kappa, lambda, L234A L235A) heavy 1: EVQLVESGGGLVKPGGSLRLSCAASGFTFSRYNMNWVRQAPGKGLEWVSSISTSSNYIYYADSVKGRFTFSRDNAKNSLDLQMSGLRAEDTAIYYCTRGWGPFDYWGQGTLVTVSSASTKGPSVFPLAPSSKSTSGGTAALGCLVKDYFPEPVTVSWNSGALTSGVHTFPAVLQSSGLYSLSSVVTVPSSSLGTQTYICNVNHKPSNTKVDKKVEPKSCDKTHTCPPCPAPEAAGGPSVFLFPPKPKDTLMISRTPEVTCVVVSVSHEDPEVKFNWYVDGVEVHNAKTKPREEQYNSTYRVVSVLTVLHQDWLNGKEYKCKVSNKALPAPIEKTISKAKGQPREPQVYTLPPSREEMTKNQVSLTCLVKGFYPSDIAVEWESNGQPENNYKTTPPVLDSDGSFLLYSKLTVDKSRWQQGNVFSCSVMHEALHNHYTQKSLSLSP light 1: DIQMTQSPSSLSASVGDRVTITCRARQSIGTAIHWYQQKPGKAPKLLIKYASESISGVPSRFSGSGSGTDFTLTISSLQPEDFATYYCQQSGSWPYTFGQGTKLEIKRTVAAPSVFIFPPSDEQLKSGTASVVCLLNNFYPREAKVQWKVDNALQSGNSQESVTEQDSKDSTYSLSSTLTLSKADYEKHKVYACEVTHQGLSSPVTKSFNRGEC heavy 2: EVQLVESGGGLVQPGGSLRLSCAASGFTFSSYAMSWVRQAPGKGLEWVSAISGGIGSTYYADSVKGRFTISRDNSKNTLWLQMNSLRAEDTAVYYCAKDGVGATPYYFDYWGQGTLVTVSSASTKGPSVFPLAPSSKSTSGGTAALGCLVKDYFPEPVTVSWNSGALTSGVHTFPAVLQSSGLYSLSSVVTVPSSSLGTQTYICNVNHKPSNTKVDKKVEPKSCDKTHTCPPCPAPEAAGGPSVFLFPPKPKDTLMISRTPEVTCVVVSVSHEDPEVKFNWYVDGVEVHNAKTKPREEQYNSTYRVVSVLTVLHQDWLNGKEYKCKVSNKALPAPIEKTISKAKGQPREPQVYTLPPSREEMTKNQVSLTCLVKGFYPSDIAVEWESNGQPENNYKTTPPVLDSDGSFFLYSRLTVDKSRWQQGNVFSCSVMHEALHNHYTQKSLSLSPG light 2: QSVLTQPPSVSAAPGQKVTISCSGSSSNIGINYVSWYQQLPGTAPKLLIYDNNKRPSGIPDRFSGSKSGTSATLGITGLQTGDEADYYCGTWDSSLSAVVFGGGTKLTVLGQPKAAPSVTLFPPSSEELQANKATLVCLISDFYPGAVTVAWKADSSPVKAGVETTTPSKQSNNKYAASSYLSLTPEQWKSHRSYSCQVTHEGSTVEKTVAPTECS	7.24e-12

The remaining lines, values behind:

Binder	T cell activation EC50 [M] (CD25+ T cells, C4-2B co-culture, 72 h) [2]	Tumor killing EC50 [M] (C4-2B + PAN-T cells, 72 h, flow cytometry) [1]
PS3B913 (bispecific antibody, human IgG1, lambda, L234A L235A) heavy 1: QVQLQQSGPRLVRPSQTLSLTCAISGDSVFNNNAAWSWIRQSPSRGLEWLGRTYYRSKWLYDYAVSVKSRITVNPDTSRNQFTLQLNSVTPEDTALYYCARGYSSSFDYWGQGTLVTVSSASTKGPSVFPLAPSSKSTSGGTAALGCLVKDYFPEPVTVSWNSGALTSGVHTFPAVLQSSGLYSLSSVVTVPSSSLGTQTYICNVNHKPSNTKVDKKVEPKSCDKTHTCPPCPAPEAAGGPSVFLFPPKPKDTLMISRTPEVTCVVVSVSHEDPEVKFNWYVDGVEVHNAKTKPREEQYNSTYRVVSVLTVLHQDWLNGKEYKCKVSNKALPAPIEKTISKAKGQPREPQVYTLPPSREEMTKNQVSLTCLVKGFYPSDIAVEWESNGQPENNYKTTPPVLDSDGSFLLYSKLTVDKSRWQQGNVFSCSVMHEALHNHYTQKSLSLSPG light 1: QSALTQPASVSGSPGQSITISCTGTSSNIGTYKFVSWYQQHPDKAPKVLLYEVSKRPSGVSSRFSGSKSGNTASLTISGLQAEDQADYHCVSYAGSGTLLFGGGTKLTVLGQPKAAPSVTLFPPSSEELQANKATLVCLISDFYPGAVTVAWKADSSPVKAGVETTTPSKQSNNKYAASSYLSLTPEQWKSHRSYSCQVTHEGSTVEKTVAPTECS heavy 2: not shown light 2: not shown	1.55e-10	3.11e-10
PS3B915 (bispecific antibody, human IgG1, lambda, L234A L235A) heavy 1: QVQLQQSGPRLVRPSQTLSLTCAISGDSVFNNNAAWSWIRQSPSRGLEWLGRTYYRSKWLYDYAVSVKSRITVNPDTSRNQFTLQLNSVTPEDTALYYCARGYSSSFDYWGQGTLVTVSSASTKGPSVFPLAPSSKSTSGGTAALGCLVKDYFPEPVTVSWNSGALTSGVHTFPAVLQSSGLYSLSSVVTVPSSSLGTQTYICNVNHKPSNTKVDKKVEPKSCDKTHTCPPCPAPEAAGGPSVFLFPPKPKDTLMISRTPEVTCVVVSVSHEDPEVKFNWYVDGVEVHNAKTKPREEQYNSTYRVVSVLTVLHQDWLNGKEYKCKVSNKALPAPIEKTISKAKGQPREPQVYTLPPSREEMTKNQVSLTCLVKGFYPSDIAVEWESNGQPENNYKTTPPVLDSDGSFLLYSKLTVDKSRWQQGNVFSCSVMHEALHNHYTQKSLSLSPG light 1: QSALTQPASVSGSPGQSITISCTGTSSNIGTYKFVSWYQQHPDKAPKVLLYEVSKRPSGVSSRFSGSKSGNTASLTISGLQAEDQADYHCVSYAGSGTLLFGGGTKLTVLGQPKAAPSVTLFPPSSEELQANKATLVCLISDFYPGAVTVAWKADSSPVKAGVETTTPSKQSNNKYAASSYLSLTPEQWKSHRSYSCQVTHEGSTVEKTVAPTECS heavy 2: not shown light 2: not shown	1e-08	1e-08
